Where a chain is given by its changes, count along the chain named.
B1: 1210 Fab (Fab, V domains shown)
VH: QVQLVESGGGVVQPGRSLRLSCAASGFTFSNYGMHWVRQAPGKGLEWVAVIWYDGSKKYYADSVKGRFTISRDNSKNTLYLQMNSLRAEDTAVYYCARVRDSSDYYGDAFDIWGQGTMVTVSS
VL: DIQMTQSPSTLSASVGDRVTITCRASQSISSWLAWYQQKPGKAPKLLIYKASNLESGVPLRFSGSGSGTEFTLTISSLQPDDFATYYCQQYNNYWTFGQGTKVEIK
B2: 1210_YY IgG (antibody, V domains shown)
VH: B1 VH with D104Y
VL: B1 VL with N92Y
B3: antibody 1210 (IgG) (antibody, V domains shown)
VH: B1 VH
VL: B1 VL

Columns and labels:
CSP-NPNA5.5-10x-1210 Fab [1] = experiment: ITC
CSP-NPNA5.5-12x-1210 Fab [2] = experiment: ITC
CSP-NPNA5.5-8x-1210 Fab [3] = experiment: ITC
CSP-NPNA5.5-10x-1210 Fab [4] = experiment: ITC; remark: listed apart in the source
CSP-NPNA5.5-12x-1210 Fab [5] = experiment: ITC; remark: listed apart in the source
CSP-NPNA5.5-8x-1210 Fab [6] = experiment: ITC; remark: listed apart in the source
[7] = target: full length PfCSP (NF54 strain) (Plasmodium falciparum (NF54 strain), UniProt P19597 20-384); experiment: BLI; avid
full length PfCSP (NF54 strain), sequence (P19597 20-384): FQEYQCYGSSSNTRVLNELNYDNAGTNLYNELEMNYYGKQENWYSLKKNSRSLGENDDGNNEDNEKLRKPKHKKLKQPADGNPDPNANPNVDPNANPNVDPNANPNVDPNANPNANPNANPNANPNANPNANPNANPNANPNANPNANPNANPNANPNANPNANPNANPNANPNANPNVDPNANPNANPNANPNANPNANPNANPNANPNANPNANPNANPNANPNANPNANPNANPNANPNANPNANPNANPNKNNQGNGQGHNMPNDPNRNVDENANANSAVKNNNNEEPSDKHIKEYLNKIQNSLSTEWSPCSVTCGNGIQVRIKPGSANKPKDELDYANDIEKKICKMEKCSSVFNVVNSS

Row | Binder | Kd (CSP-NPNA5.5-10x-1210 Fab [1]) | Ka (CSP-NPNA5.5-12x-1210 Fab [2]) | Ka (CSP-NPNA5.5-8x-1210 Fab [3]) | Ka (CSP-NPNA5.5-10x-1210 Fab [4]) | Kd (CSP-NPNA5.5-12x-1210 Fab [5]) | Kd (CSP-NPNA5.5-8x-1210 Fab [6]) | Kd [7]
1 | B1 | 456 nM | 5.73e+06 M⁻¹ | 3e+06 M⁻¹ | 2.19e+06 M⁻¹ | 174 nM | 333 nM | 
2 | B2 |  |  |  |  |  |  | 0.66 nM
3 | B3 |  |  |  |  |  |  | < 0.001 nM

From patent publication US12214052 (dated 2025)
